Columns and labels:
[1] = target: hexahistidine-tagged soluble four-domain CD4 (UniProt P01730); experiment: SPR
[2] = target: HIV-1 YU-2 gp120 S375A (HIV-1 YU-2); experiment: ITC
[3] = target: HIV-1 YU-2 gp120 F210A (HIV-1 YU-2); experiment: SPR
[4] = target: HIV-1 YU-2 gp120 W112A (HIV-1 YU-2); experiment: SPR
[5] = target: HIV-1 YU-2 gp120 M426A (HIV-1 YU-2); experiment: SPR
[6] = target: HIV-1 YU-2 gp120 I109A (HIV-1 YU-2); experiment: SPR
[7] = target: wild-type HIV-1 YU-2 Env gp120, soluble monomeric (HIV-1 YU-2) (UniProt P35961); experiment: SPR
[8] = target: HIV-1 YU-2 gp120 T257A (HIV-1 YU-2); experiment: ITC

## HIV-1 YU-2 gp120 F210A (natural protein)
[1]
  Kd: 230 nM

## HIV-1 YU-2 gp120 I109A (natural protein)
[1]
  Kd: 6.8 nM

## HIV-1 YU-2 gp120 M426A (natural protein)
[1]
  Kd: 59 nM

## HIV-1 YU-2 gp120 S375A (natural protein)
[1]
  Kd: 6.2 nM

## HIV-1 YU-2 gp120 S375H (natural protein)
[1]
  Kd: 5.2 nM

## HIV-1 YU-2 gp120 S375W (natural protein)
[1]
  Kd: 3.7 nM

## HIV-1 YU-2 gp120 T257A (natural protein)
[1]
  Kd: 10.2 nM

## HIV-1 YU-2 gp120 T257R (natural protein)
[1]
  Kd: 21 nM

## HIV-1 YU-2 gp120 W112A (natural protein)
mAb F105
  Kd: 83 nM
[1]
  Kd: 95 nM

## peptide 1 (sequence-minimized peptide triazole Ile-Asn-Asn-Ile-X-Trp, X = ferrocenyl-triazolePro)
[2]
  dH: -9.1 kcal/mol
[3]
  IC50: 200 nM

## peptide 2 (peptide 1 with Trp replaced by Tyr)
[4]
  IC50: > 50 µM
[5]
  IC50: 5.1 µM
[3]
  IC50: 4100 nM
[6]
  IC50: 3.1 µM
[7]
  IC50: 3000 nM

## peptide 4 (peptide 1 with N-methylated indole at Trp 6)
[8]
  dH: -11 kcal/mol
  stoichiometry N: 1.15
[2]
  dH: -9.3 kcal/mol
  stoichiometry N: 1.13
